Columns and labels:
[1] = biological target: TbMORN1(7–15) (Trypanosoma brucei brucei strain Lister 427); assay: SEC-MALS; Superdex 200 Increase 10/300 GL; 20 mM Tris-HCl pH 8.5, 200 mM NaCl, 2% (w/v) glycerol, 0.5 mM DTT; 100 μl of 2–4 mg/ml protein applied
[2] = biological target: TbMORN1(10–15) (Trypanosoma brucei brucei strain Lister 427); assay: as above
[3] = biological target: TbMORN1(2–15) (Trypanosoma brucei brucei strain Lister 427); assay: as above
[4] = biological target: the molecule itself; assay: crystal structure; sitting-drop vapour diffusion at 22°C; TbMORN1(7–15) in forms P21 and C2 and TgMORN1(7–15) in P43212 as extended dimers; PfMORN1(7–15) in C2221 as a V-shaped dimer with Zn2+

With TbMORN1(7–15) (domain or fragment) the stoichiometry N [1] was 2.

With TbMORN1(10–15) (domain or fragment) the stoichiometry N [2] was 2.

For TbMORN1(2–15) (domain or fragment), the stoichiometry N [3] was 2.

B1: TgMORN1(7–15) (domain or fragment, Toxoplasma gondii)
chain: EKYEGDWVNGKMHGHGKYIYSDGGVYEGDWIDGKMHGKGTYVFPNGNVYEGEWAHDMKDGYGVLTYQNGEKYEGYWKQDKVHGKGTLTYTRGDKYIGDWMDAKKDGEGELIYANGDRFKGQWADDRANGFGVFTYANGNRYEGEWTDDKRHGRGVFYCAEDGSAYEGEFVGGRKEGNGILRLATGHQLEGTWSGGQLVRVTSFVFAQDSPWLNVDL
notes: TgMORN1, Toxoplasma gondii (1092 bp open reading frame), MORN repeats 7–15; also called Toxoplasma gondii MORN1(7–15); source: E. coli Rosetta 2 (DE3)pLysS, purified; not shown: His10, N-terminal, cleaved
B1: binds [4].

— paper PMC7725318, “Structures of three MORN repeat proteins and a re-evaluation of the proposed lipid-binding properties of MORN repeats” (PLoS ONE, 2020)
